We go through 1 substance from patent US20020086018A1.

Test [1] addresses mBCMA-Fc (soluble murine BCMA-Fc) (mouse). Description: BIAcore 2000; BCMA-Fc immobilised on CM5, Flag-APRIL as analyte, 1:1 Langmuir model.
Test [2] deals with huBCMA-Fc (soluble human BCMA-Fc receptor fusion protein) (human). The description is as above.

In the case of “Soluble murine APRIL-Flag protein (FLAG-tagged soluble mouse G70) (ligand)”, the Kd in test [1] was determined as 0.25 nM; in test [2], 0.29 nM.

As a reminder, the Kd is the free concentration of one partner at which half of the binding sites on the other are occupied at equilibrium, for simple one-to-one binding. A higher Kd goes with a looser complex.
